Test results taken from US20190322724.

Tested on: blocking anti-c-Src monoclonal antibodies

| Substance | TIMP-2 tyrosine phosphorylation in HT1080 CM (pulldown, anti-phos-Tyr immunoblot) | TIMP-2 tyrosine phosphorylation in SYF+c-Src CM (pulldown, anti-phos-Tyr immunoblot) |
| --- | --- | --- |
| secreted c-Src (e-Src) in conditioned media of HT1080 human fibrosarcoma cells | TIMP-2 tyrosine phosphorylation was abolished |  |
| secreted c-Src (e-Src) in conditioned media of SYF+c-Src cells |  | TIMP-2 tyrosine phosphorylation was abolished |
